Experimental data published in article PMC11200239.

Biological target: MerA variant G415I (P. aeruginosa) (UniProt P00392)
Assay: SEC-MALS

MerA variant G415I (from UniProt P00392 96-561) (enzyme)
stoichiometry N: 2
